T1: PilR-His (Lysobacter enzymogenes OH11, UniProt A0A5P2TY02 1-471)
T1 sequence: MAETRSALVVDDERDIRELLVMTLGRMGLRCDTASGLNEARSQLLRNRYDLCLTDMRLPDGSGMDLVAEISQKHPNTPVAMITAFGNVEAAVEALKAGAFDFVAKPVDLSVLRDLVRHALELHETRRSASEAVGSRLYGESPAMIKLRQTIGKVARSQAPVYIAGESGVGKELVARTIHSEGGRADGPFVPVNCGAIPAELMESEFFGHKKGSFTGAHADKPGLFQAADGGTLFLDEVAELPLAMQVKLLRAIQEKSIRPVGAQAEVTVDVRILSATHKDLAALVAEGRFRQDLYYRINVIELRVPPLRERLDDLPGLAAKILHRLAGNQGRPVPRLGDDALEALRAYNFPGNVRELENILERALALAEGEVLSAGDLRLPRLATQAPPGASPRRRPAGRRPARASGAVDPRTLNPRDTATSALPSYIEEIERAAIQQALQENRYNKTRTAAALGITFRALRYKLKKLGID

B1: PLchD-2b (dsDNA)
DNA 1: CCTGCACCGGAATGCAGCCCCCTTGGGCTATGCTCGGCACAGCAGACTGG
DNA 2: CCAGTCTGCTGTGCCGAGCATAGCCCAAGGGGGCTGCATTCCGGTGCAGG
B2: Clp-glutathione S-transferase (GST) (natural protein)
chain: MSANPVAPLTALRRTNSPLLPDGATIERFLAHCHRRRYPSRTDVFRPGDPASTLYYVVSGSVSIITEEEDGRELVLGYFGPGEFVGELGLFIESDHREVILRTRSTCELAEIGHERLYDLLLTRLSLDAPKLLYAIGAQISRRLLDTSRKAGRLAFLDVTDRIVRALHDLAKEPEAMSHPQGTQLRVSRQELSRLVGCSREMAGRVLKKLQADGKLHARGKTVVLYGTR
B3: PLchD-2c (dsDNA)
DNA 1: TGACCGGAAGGGGCATGGGGACACCCTGGCGTGGAAGCTGGCGCGGCTGG
DNA 2: CCAGCCGCGCCAGCTTCCACGCCAGGGTGTCCCCATGCCCCTTCCGGTCA

How the values were obtained:
PilR-His = molecular target: T1, PilR-His; experiment: EMSA
[1] = molecular target: LchD^GGDEV-His, soluble cytoplasmic fragment of LchD (Lysobacter enzymogenes OH11); experiment: MST

| Binder | binding result (PilR-His) | Kd [1] [nM] |
| --- | --- | --- |
| B1 | no binding | – |
| B2 | – | 490 |
| B3 | no binding | – |
